What follows are substances tested against 3E1 Fab, P01857;P01834. Conditions: parent: est. 100; read off a plot.

| Substance | percent of parent [%] |
| --- | --- |
| full-length, wild-type HA from A/Washington/05/2011 (H1N1) HA1:H18L | 100 |
| full-length, wild-type HA from A/Washington/05/2011 (H1N1) HA1:H38S | 97 |
| full-length, wild-type HA from A/Washington/05/2011 (H1N1) HA2:D19A | 100 |
| full-length, wild-type HA from A/Washington/05/2011 (H1N1) HA2:Y34M | 100 |
